Measurements: patent US20130273062A1, “ANTIBODIES AGAINST HUMAN CD39 AND USE THEREOF” (OREGA BIOTECH, priority 2010, published 2013)

T1: CD39 ATPase activity of melanoma cells (SK-MEL-5) (Homo sapiens, UniProt P49961)
T1 construct: SK-MEL-5 and SK-MEL-28 cell lines display membranous expression of CD39; endogenous in cells; host or cells: SK-MEL-5 melanoma cells
T1 sequence (P49961 1-510): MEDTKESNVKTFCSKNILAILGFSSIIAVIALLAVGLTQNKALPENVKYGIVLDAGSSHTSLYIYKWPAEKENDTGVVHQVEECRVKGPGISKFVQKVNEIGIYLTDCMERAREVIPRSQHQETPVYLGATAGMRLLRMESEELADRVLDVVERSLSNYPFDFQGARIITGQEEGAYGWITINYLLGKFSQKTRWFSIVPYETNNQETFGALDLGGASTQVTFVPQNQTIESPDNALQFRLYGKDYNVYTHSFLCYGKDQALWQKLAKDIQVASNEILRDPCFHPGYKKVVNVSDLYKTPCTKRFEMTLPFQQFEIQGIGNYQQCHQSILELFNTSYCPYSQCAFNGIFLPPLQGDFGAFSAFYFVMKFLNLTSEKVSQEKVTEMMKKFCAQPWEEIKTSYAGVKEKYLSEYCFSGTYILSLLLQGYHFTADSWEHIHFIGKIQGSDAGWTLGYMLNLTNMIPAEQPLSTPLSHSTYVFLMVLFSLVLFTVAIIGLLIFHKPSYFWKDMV

T2: CD39 ATPase activity of lymphoma cells (Ramos) (Homo sapiens, UniProt P49961)
T2 construct: BL41, B104 and Ramos express CD39 at their cell surface; endogenous in cells; host or cells: Ramos Burkitt lymphoma cells
T2 sequence (P49961 1-510): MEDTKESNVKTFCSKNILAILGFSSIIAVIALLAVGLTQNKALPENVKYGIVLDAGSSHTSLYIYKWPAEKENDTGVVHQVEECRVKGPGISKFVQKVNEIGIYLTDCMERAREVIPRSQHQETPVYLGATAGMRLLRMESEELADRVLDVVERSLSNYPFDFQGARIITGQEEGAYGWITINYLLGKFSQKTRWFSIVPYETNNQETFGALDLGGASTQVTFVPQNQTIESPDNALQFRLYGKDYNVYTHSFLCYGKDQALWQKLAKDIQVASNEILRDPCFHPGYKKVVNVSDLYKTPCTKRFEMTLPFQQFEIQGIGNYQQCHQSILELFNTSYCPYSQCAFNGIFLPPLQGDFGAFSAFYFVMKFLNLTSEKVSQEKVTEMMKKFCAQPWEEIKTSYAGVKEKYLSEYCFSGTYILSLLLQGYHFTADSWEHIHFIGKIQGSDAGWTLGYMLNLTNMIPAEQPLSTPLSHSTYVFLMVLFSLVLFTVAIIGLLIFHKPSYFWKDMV


Key:
[1] = test system: CD4 and CD8 T cells (PBMC) cultured with CD39-expressing SK-MEL-5 melanoma cells; experiment: Inhibition of melanoma cell-mediated suppression: proliferation of CFSE-labelled T cells co-cultured with irradiated SK-MEL-5; assay type: cell-based, human; conditions: CFSE-labelled PBMC + irradiated SK-MEL-5, 5 days, BY40 5 μg/mL, POM-1 100 or 250 μM, flow cytometry; for CD4 T cell proliferation: FIG. 4A; for CD8 T cell proliferation: FIG. 4B
Description: (§1) FIG. 4: CD39 antibody (BY40) restores T cell responses against melanoma cells. 5×10^4 CFSE-labelled PBMC were cultured in the presence of 5×10^3 irradiated (100 Gy) SK-MEL-5 (NT). POM-1 (100 or 250 μM), BY40 or control isotype antibody D6212 (5 μg/mL) were added at the beginning of the culture and after 2 days of culture. After 5 days of culture, proliferation of CFSE-labelled CD4 (A) and CD8 (B) T cells was analysed by flow cytometry. Experiment was performed in duplicate and results are representative of 2 independent experiments.
as §1, with “5×10^4” for “FIG. 4: CD39 antibody (BY40) restores T cell responses against melanoma cells. 5×10^4”

[2] = target: T1, CD39 ATPase activity of melanoma cells (SK-MEL-5); experiment: Inhibition of melanoma-CD39 enzymatic (ATPase) activity, phosphate release measured with Malachite green; assay type: cell-based; conditions: SK-MEL-5 cells cultured with mAb for 16 h, then 100 μM ATP for 15 min; FIG. 3
Description: (§2) FIG. 3: CD39 (BA54g) antibody inhibits CD39 ATPase activity of melanoma cells. 1×10^5 melanoma cells (SK-MEL-5) were cultured in complete RPMI medium alone or in presence of BA54g mAb for 16 h. Cells were then washed three times in phosphate free buffer (10 mM glucose, 20 mM Hepes, 5 mM KCl, 120 mM NaCl, 2 mM CaCl2) and resuspended in the same buffer supplemented with 100 μM ATP for 15 min. Phosphate concentration in supernatants was measured after addition of Malachite green/polyvinylalcohol/ammonium mobylate solution for 20 min by a spectrophotometer at 620 nm and compared against a standard curve. Experiment was performed in triplicate.
as §2, with “Protocol:” for “FIG. 3: CD39 (BA54g) antibody inhibits CD39 ATPase activity of melanoma cells.”, “min” for “min.”

[3] = target: T2, CD39 ATPase activity of lymphoma cells (Ramos); experiment: Inhibition of lymphoma-CD39 enzymatic (ATPase) activity, phosphate release measured with Malachite green; assay type: cell-based; conditions: Ramos cells cultured with increasing doses of mAb for 16 h, then 100 μM ATP for 15 min; FIG. 7
Description: (§3) FIG. 7: CD39 antibodies inhibit CD39 ATPase activity of lymphoma cells. 1×10^5 lymphoma cells (Ramos) were cultured in complete RPMI medium alone or in presence of BA54g, BY12 or BY40 mAbs, at the indicated concentrations, for 16 h. Cells were then washed three times in phosphate free buffer (10 mM glucose, 20 mM Hepes, 5 mM KCl, 120 mM NaCl, 2 mM CaCl2) and resuspended in the same buffer supplemented with 100 μM ATP for 15 min. Phosphate concentration in supernatants was measured after addition of Malachite green/polyvinylalcohol /ammonium mobylate solution for 20 min by a spectrophotometer at 620 nm and compared against a standard curve. Results are the mean of two independent experiments.
as §3, with “1×10^5” for “FIG. 7: CD39 antibodies inhibit CD39 ATPase activity of lymphoma cells. 1×10^5”, “KC1,” for “KCl,”

Molecule | CD4 T cell proliferation [1] | CD8 T cell proliferation [1] | CD39 enzymatic activity of melanoma cells [2] | CD39 activity of lymphoma cells [3]
[Na+].[Na+].[Na+].[Na+].[Na+].[Na+].[O]=[W](=[O])([O-])[O-].[O]=[W](=[O])([O-])[O-].[O]=[W](=[O])([O-])[O-].[O]=[W](=[O])=[O].[O]=[W](=[O])=[O].[O]=[W](=[O])=[O].[O]=[W](=[O])=[O].[O]=[W](=[O])=[O].[O]=[W](=[O])=[O].[O]=[W](=[O])=[O].[O]=[W](=[O])=[O].[O]=[W](=[O])=[O] [POM-1, sodium metatungstate, reference compound] | increased | increased |  | 
BA54g: CD39 monoclonal antibody from hybridoma CNCM I-4171; VH SEQ ID NO: 11, VL SEQ ID NO: 15 (antibody, listed as Mus musculus, V domains shown) VH: DVQLVESGGGLVQPGGSRKLSCAASGFTFSSFGMHWVRQAPEKGLEWVAYISSGSSIIYYADTVKGRFTISRDNPKNTLFLQMTSLGSEDTAMYYCARWSTTVVATDYWGQGTTLTVS VL: NIVMTQSPKSMSMSVGERVTLTCKASENVVTYVSWYQQKPEQSPKLLIYGASNRYTGVPDRFTGSGSATDFTLTISSVQAEDLADYHCGQGYSYPYTFGGGTKLEIKR |  |  | inhibits CD39 enzymatic activity in a dose dependant manner | inhibited CD39 activity in a dose dependant manner
BY40: murine CD39 antibody from hybridoma CNCM I-3889; VH SEQ ID NO: 1, VL SEQ ID NO: 5 (antibody, listed as Mus musculus) VH: TRVKKPRETVKISCKASGYTFTHYGMNWVKQAPGKGLKWMGWINTYTGEPTYADDFKGRFAFSLEASVSTAYLQINNLKNEDTATYFCARRRYEGNYVFYYFDYWGQGTTLTVSSAKTTPPSVYPLAPGSAAQTNSMVTLGCLVKGYFPEQVTVTWNSGSLSSGVHTFPAVLQSDLYTLSSSVTVPS light: DIQMTQSPASLSASVGETVTITCRASENIYSYFSWYQQKQGKSPQLLVYTAKTLAEGVPSRFSGSGSGTQFSLKINSLQPEDFGSYYCQHHYVTPYTFGGGTKLEIKRADAAPTVSIFPPSSEQLTSGGASVVCFLNNFYPKDINVKWKIDGSERQNGVLNSWTD | increased | increased |  | inhibited CD39 activity in a dose dependant manner
